Results as given in paper PMC12619835, “KLF5 enables dichotomous lineage programs in pancreatic cancer via the AAA+ ATPase coactivators RUVBL1 and RUVBL2” (Nature Communications, 2025).

Biological target: T1, RUVBL1/2 hetero-hexamer (purified, recombinant) (UniProt Q9Y265 1-456; Q9Y230 1-463)
T1 construct: RUVBL1; RUVBL2, untagged; Printed as a hetero-hexamer; also called RUVBL1/2 complex; source: E. coli BL21, co-expressed, purified (Ni-NTA, TEV cleavage, SEC on Superose 6); not shown: His6, N-terminal, cleaved
T1 sequence (Q9Y265 whole entry, chain 1 of 2): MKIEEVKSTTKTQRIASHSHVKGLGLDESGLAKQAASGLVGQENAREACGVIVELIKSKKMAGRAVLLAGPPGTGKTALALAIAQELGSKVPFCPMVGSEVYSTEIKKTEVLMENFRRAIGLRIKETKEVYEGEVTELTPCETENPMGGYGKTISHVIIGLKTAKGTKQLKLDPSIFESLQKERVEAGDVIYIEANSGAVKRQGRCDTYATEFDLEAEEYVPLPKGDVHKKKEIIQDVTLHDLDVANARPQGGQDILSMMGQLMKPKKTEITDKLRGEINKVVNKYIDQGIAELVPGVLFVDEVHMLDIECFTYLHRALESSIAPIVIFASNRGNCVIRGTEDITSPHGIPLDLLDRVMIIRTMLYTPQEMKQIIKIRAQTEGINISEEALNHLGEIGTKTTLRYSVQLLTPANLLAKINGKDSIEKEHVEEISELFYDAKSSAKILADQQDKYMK
T1 sequence (Q9Y230 whole entry, chain 2 of 2): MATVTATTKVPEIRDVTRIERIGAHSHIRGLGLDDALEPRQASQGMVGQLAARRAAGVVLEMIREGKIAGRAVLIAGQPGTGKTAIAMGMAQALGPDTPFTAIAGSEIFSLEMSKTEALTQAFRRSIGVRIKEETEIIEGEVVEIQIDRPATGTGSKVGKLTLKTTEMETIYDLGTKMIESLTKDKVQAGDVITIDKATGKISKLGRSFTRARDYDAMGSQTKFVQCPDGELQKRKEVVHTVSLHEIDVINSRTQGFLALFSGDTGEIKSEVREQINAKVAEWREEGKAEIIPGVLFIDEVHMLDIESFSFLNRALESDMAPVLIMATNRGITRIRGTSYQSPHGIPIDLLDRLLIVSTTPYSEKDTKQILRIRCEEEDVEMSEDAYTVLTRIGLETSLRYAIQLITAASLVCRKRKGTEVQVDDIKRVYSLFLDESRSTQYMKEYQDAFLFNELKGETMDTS
Assay: pull-down; MBP-KLF5 (10 μg) or MBP (5 μg) on amylose resin; 10 μg RUVBL1, 10 μg RUVBL2 or 20 μg RUVBL1/2 hetero-hexamer added for 2 h in 50 mM Na3PO4 pH 7.5, 0.1 mM EDTA, 200 mM NaCl, 1 mM DTT, 5% glycerol; washes with 250 mM NaCl; maltose elution; Western blot; 4 °C
Conditions: both partners purified

B1: recombinant MBP-tagged KLF5 (natural protein)
chain: not shown
notes: KLF5; For the pull-down with pure proteins the MBP-KLF5 was not previously subject to the amylose purification; also called MBP-KLF5; 6xHis-TEV-MBP-KLF5; source: E. coli BL21-CodonPlus (DE3)-RIPL, purified (Ni-NTA, TEV cleavage, SEC; also amylose resin for the mass spectrometry experiments); not shown: His6, N-terminal, cleaved; MBP, N-terminal, kept
- binding result: binds
